{"source": "patent US20170247465A1", "about": "“COMBINATION THERAPY FOR TREATMENT OF CANCER” (OncoMed Pharmaceuticals, Inc., priority 2014, published 2017)", "molecules": {"B1": {"name": "OMP-18R5: anti-FZD antibody, IgG2, also known as vantictumab; heavy chain SEQ ID NO:3, light chain SEQ ID NO:4 (antibody)", "heavy": "EVQLVESGGGLVQPGGSLRLSCAASGFTFSHYTLSWVRQAPGKGLEWVSVISGDGSYTYYADSVKGRFTISSDNSKNTLYLQMNSLRAEDTAVYYCARNFIKYVFANWGQGTLVTVSSASTKGPSVFPLAPCSRSTSESTAALGCLVKDYFPEPVTVSWNSGALTSGVHTFPAVLQSSGLYSLSSVVTVPSSNFGTQTYTCNVDHKPSNTKVDKTVERKCCVECPPCPAPPVAGPSVFLFPPKPKDTLMISRTPEVTCVVVDVSHEDPEVQFNWYVDGVEVHNAKTKPREEQFNSTFRVVSVLTVVHQDWLNGKEYKCKVSNKGLPAPIEKTISKTKGQPREPQVYTLPPSREEMTKNQVSLTCLVKGFYPSDIAVEWESNGQPENNYKTTPPMLDSDGSFFLYSKLTVDKSRWQQGNVFSCSVMHEALHNHYTQKSLSLSPGK", "light": "DIELTQPPSVSVAPGQTARISCSGDNIGSFYVHWYQQKPGQAPVLVIYDKSNRPSGIPERFSGSNSGNTATLTISGTQAEDEADYYCQSYANTLSLVFGGGTKLTVLGQPKAAPSVTLFPPSSEELQANKATLVCLISDFYPGAVTVAWKADSSPVKAGVETTTPSKQSNNKYAASSYLSLTPEQWKSHRSYSCQVTHEGSTVEKTVAPTECS"}}, "experiment": "Phase 1b study of vantictumab in combination with docetaxel in NSCLC patients / Phase 1 program", "format": "in vivo", "settings": "Cohorts 1 and 2: vantictumab 5 and 10 mg/kg Day 1 of 21-day cycle with docetaxel 75 mg/m^2", "source_text": "The study is an open-label Phase 1b dose-escalation study of vantictumab in combination with docetaxel in patients with previously treated recurrent or advanced non-small cell lung cancer (NSCLC). The primary objectives of the study are to determine the safety and the maximum tolerated dose of vantictumab in combination with docetaxel. To identify a recommended Phase 2 dose for vantictumab in combination with docetaxel. The secondary objectives are to characterize the pharmacokinetics (PK) of vantictumab when administered in combination with docetaxel, to characterize the immunogenicity of vantictumab, and to make preliminary assessment of vantictumab efficacy when administered in combination with docetaxel.\nVantictumab is administered on Day 1 of each 21-day cycle. The dose levels of vantictumab for Cohorts 1 and 2 were 5 mg/kg and 10 mg/kg, respectively. For Cohorts 1 and 2, docetaxel (75 mg/m^2) is administered IV on Day 1 of each cycle. […] Patients of Cohorts 3 and 4 will be administered vantictumab at 2 mg/kg and 4 mg/kg once every 3 weeks, respectively. No dose escalation of vantictumab will be allowed within a dose cohort. A staggered dosing regimen will be evaluated in Cohorts 3 and 4. Docetaxel (75 mg/m^2) will be administered IV on Day 3 of each cycle.", "data": [{"molecule": "B1", "values": [{"measurement": "adverse events leading to discontinuation", "result": "fragility fractures observed"}]}]}
